Measurements: the supplement of paper PMC12855868

B1: library; numbered along this chain (parent)
chain: MAAAGGARLLRAASAVLGGPAGRWLHHAGSRAGSSGLLRNRGPGGSAEASRSLSVSARARSSSEDKITVHFINRDGETLTTKGKVGDSLLDVVVENNLDIDGFGACEGTLACSTCHLIFEDHIYEKLDAITDEENDMLDLAYGLTDRSRLGCQICLTKSMDNMTVRVPETVADARQSIDVGKTS

Variants of: B1
Test: scaled log2 fold change in cell abundance, elesclomol vs control (0 = silent mean, 1 = nonsense mean) (scaled log2 ratio); higher = higher viability under elesclomol (loss of FDX1 cuproptosis function)
Details: glucose 10 mM
Method: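 Deep mutational scan of full-length human FDX1: a pooled saturation-mutagenesis ORF library (every residue 2-184 mutated to all 19 amino acids plus stop, and silent codons where available) was expressed by lentivirus in FDX1-knockout ABC1 (14 days) or HEK293T (11 days) cells grown with elesclomol (ES) or DMSO control. Variant abundance came from ORF sequencing. The log2 fold change (ES vs control, mean of duplicates) was centred on the silent-variant mean (0) and scaled to the nonsense-variant mean (1). Higher values mean greater viability under ES, i.e. loss of FDX1 function in cuproptosis.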

[1] = with ABC1 FDX1 KO, elesclomol 5 nM, 14 days
[2] = with HEK293T FDX1 KO, elesclomol 40 nM, 11 days
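Further: variant abundance is its share of total variant reads in each endpoint sample, from next-generation sequencing of the integrated ORF PCR-amplified out of genomic DNA.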

Row | Variant | scaled log2 fold change [1] | scaled log2 fold change [2]
1 | S30H | 0.109 | 0.106
2 | N73Y | 0.218 | -0.741
3 | L156N | 0.8 | 0.347
4 | K82Y | -0.328 | -0.154
5 | T81W | -0.0129 | -0.543
6 | D146P | -0.219 | 0.177
7 | N40Y | -0.412 | -0.381
8 | N40W | -0.166 | -0.235
9 | I72N | 0.0538 | -0.293
10 | I72P | 0.991 | 1.28
11 | G6N | 0.371 | 0.29
12 | G6L | 0.106 | 0.412
13 | S35P | -0.144 | –
14 | S159T | -0.475 | 0.754
15 | S159A | 0.168 | -0.0471
16 | A32S | 0.0206 | -0.496
17 | G151H | 1.27 | 1.31
18 | I178L | 0.552 | -0.187
19 | S113W | 0.446 | 0.762
20 | I154Q | 0.399 | 0.268
21 | T68A | -0.0418 | -0.389
22 | D139L | 0.0653 | -0.608
23 | A12N | -0.0628 | 0.996
24 | Y142S | -0.293 | -1.45

Row | Variant | scaled log2 fold change [1] | scaled log2 fold change [2]
25 | E48V | 0.47 | 0.255
26 | E48D | 0.623 | 0.469
27 | L25K | 0.14 | 1.29
28 | P43N | 0.14 | 1.24
29 | P43F | -0.0201 | 0.822
30 | N135S | 0.055 | -0.262
31 | V167H | 0.217 | 1.13
32 | R166L | -0.509 | 0.328
33 | D179T | 0.106 | 0.00101
34 | T145P | 0.209 | -0.123
35 | D91P | 0.307 | 0.179
36 | R74I | -0.228 | 1.14
37 | I123A | -0.0959 | -0.0656
38 | E77Q | -0.0695 | 0.00586
39 | H116S | -0.0363 | 0.435
40 | R31P | 0.561 | -0.0123
41 | R31S | 0.29 | 0.11
42 | R23C | 0.413 | 0.458
43 | G18D | -0.233 | 0.58
44 | G18S | 0.392 | 0.921
45 | D132N | -0.0637 | –
46 | D99N | -0.0926 | -0.216
47 | A21S | 0.463 | -0.189
48 | A21K | -0.827 | –

Row | Variant | scaled log2 fold change [1] | scaled log2 fold change [2]
49 | A111T | 0.105 | -0.0821
50 | L117H | 1.03 | 1.35
51 | K84A | -0.0494 | 0.375
52 | K84E | 0.218 | -0.39
53 | H122M | 0.0412 | 0.368
54 | S34L | 0.0704 | -0.513
55 | N162E | 0.0612 | 0.838
56 | N162P | 0.182 | -0.234
57 | N162C | -0.275 | 0.0594
58 | N162K | -0.0702 | 0.386
59 | G108F | 1.12 | 0.938
60 | G108P | 1.09 | 1.24
61 | L140E | 0.271 | –
62 | D136P | 0.922 | 1.19
63 | G33A | 0.0776 | 0.0796
64 | C155P | 0.0631 | 0.21
65 | C155D | 0.24 | -1.76
66 | S52R | 0.143 | -1.18
67 | S52Y | 0.285 | 0.0679
68 | S52T | -0.921 | -0.112
69 | A172P | -0.333 | 0.355
70 | C106L | 1.09 | 1.32
71 | E125A | -0.503 | -0.173
72 | L17S | 0.386 | 0.458

Row | Variant | scaled log2 fold change [1] | scaled log2 fold change [2]
73 | D101S | -0.19 | -0.82
74 | D101Q | 0.0405 | -0.42
75 | R175G | 0.394 | –
76 | G19N | -0.0111 | 0.0883
77 | G19C | -0.0683 | -0.489
78 | N97P | -0.344 | -0.674
79 | H70T | -0.764 | –
80 | T157R | 0.294 | 0.0556
81 | L138E | 0.986 | 0.639
82 | L138Y | 0.578 | -0.246
83 | T80E | 0.301 | -0.0351
84 | K66T | 0.0453 | 0.851
85 | A174F | -1.02 | -1.07
86 | R8Q | 0.308 | -0.248
87 | L89P | 0.89 | 0.172
88 | S184M | 0.00413 | 0.661
89 | S184A | 0.168 | 0.908
90 | L10M | 0.337 | 0.282
91 | L10P | -0.379 | –
92 | L10F | -0.0904 | -0.0054
93 | I118W | 0.135 | 0.474
94 | M137F | -0.075 | -0.7
95 | V180G | 0.144 | -0.341
96 | V180L | -0.0572 | -0.104

Row | Variant | scaled log2 fold change [1] | scaled log2 fold change [2]
97 | A2M | 0.0773 | 0.0994
98 | L9I | -0.993 | -0.482
99 | R147S | -0.721 | -0.596
100 | A47T | 0.83 | 0.802
101 | Q176A | 0.239 | 0.8
102 | Q176F | -0.29 | 0.182
103 | T131F | -1.03 | 0.443
104 | L79F | 0.0893 | -0.166
105 | I100N | 0.181 | 0.295
106 | D128M | -0.149 | -0.00382
107 | V94L | 0.0554 | -0.336
108 | V94W | 0.0681 | 0.96
109 | A15H | 0.0941 | -0.215
110 | L38K | -0.0234 | 0.601
111 | A141R | 0.0996 | 0.0982
112 | R58C | 0.0658 | -0.099
113 | A4Y | 0.257 | 0.669
114 | A4E | -0.03 | -0.0483
115 | A49S | 0.123 | 1.82
116 | R149I | 0.876 | 0.53
117 | G44Y | 0.198 | -0.79
118 | V165I | -0.183 | -0.249
